In patent US20230340128A1 (Xencor, published 2023):
Where a chain is given by its changes, count along the chain named. Values belong to the binder of their own block, whether it stands above or below them.

Legend:
[1] = biological target: MSLN on OVCAR8 cells (~90K MSLN antigens/cell) (UniProt Q13421 296-598); assay: binding to OVCAR8 cells, MFI APC against mAb concentration
human mesothelin (MSLN) [2] = biological target: T1, human mesothelin (MSLN) (human, UniProt Q13421 296-580, limits assumed); assay: KD quoted in the FIG. 25 legend; Octet (BLI) per FIGS. 20-21
T1 construct: Antigen of the Octet KD values

CD3 = biological target: T2, CD3; assay: label in the legend box: nominal affinity of the CD3 binding domain; method not stated on the sheet
T2 chain 1: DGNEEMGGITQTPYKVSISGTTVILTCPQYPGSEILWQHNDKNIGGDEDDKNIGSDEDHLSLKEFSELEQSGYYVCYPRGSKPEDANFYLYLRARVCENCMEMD
T2 chain 2: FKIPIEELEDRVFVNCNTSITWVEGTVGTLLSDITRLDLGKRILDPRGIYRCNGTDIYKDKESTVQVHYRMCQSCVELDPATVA

[3] = biological target: T3, MSLN on OVCAR8 cells (~90K MSLN antigens/cell) (UniProt Q13421 296-598); assay: flow cytometry on OVCAR8 cells, 1 h at 4 C, anti-human-Fc A647 secondary
T3 construct: whole, on cells; Endogenous expression on a cancer cell line
Procedure: (§1) In this experiment, 50,000 OVCAR8 cells (˜90K MSLN antigens/cell) were seeded per well in a plate. Anti-human-Fc secondary (A647) was added for 30 min at 4° C., and binding was assessed via FACs. FIG. 39C depicts that the CD28×MSLN bsAbs in neither 1+1-Fab-scFv format nor the 2+1 mAb-scFv format antibodies show any significant off target binding. In this experiment, 50,000 SKOV3 cells (˜9K MSLN antigens/cell) were seeded per well in a plate. Anti-human-Fc secondary (A647) was added for 30 min at 4° C., and binding was assessed via FACs.
(§2) In order to assess the binding of MSLN×CD28 bsAbs in different formats, an experiment was conducted in which 50,000 OVCAR8 cells (˜90K MSLN antigens/cell) were seeded per well in a plate. Anti-human-Fc secondary (A647) was added for 30 min at 4° C., and binding was assessed via FACs.

[4] = biological target: T3, MSLN on OVCAR8 cells (~90K MSLN …); assay: as above; remark: listed apart in the source
Procedure: as §1, §2

human mesothelin (MSLN) [5] = biological target: T1, human mesothelin (MSLN); assay: label in the legend box: nominal affinity of the MSLN binding domain (paragraph 422 calls such label values KD); method not stated on the sheet
human CD28 [6] = biological target: T4, human CD28 (human, UniProt P10747 19-152, limits assumed); assay: label in the legend box: nominal affinity of the CD28 binding domain (paragraph 422 calls such label values KD); method not stated on the sheet
T4 construct: also called Cluster of Differentiation 28; Tp44

human mesothelin (MSLN) [7] = biological target: T1, human mesothelin (MSLN); assay: KD of its MSLN binding domain as quoted in the text
human CD28 [8] = biological target: T4, human CD28; assay: method not stated; Monovalent CD28 KD, table headed 1A7[CD28] H1.14_L1.71 (aka 37 nM)
human CD28 [9] = biological target: T4, human CD28; assay: KD of its CD28 binding domain as quoted in the text
human mesothelin (MSLN) [10] = biological target: T1, human mesothelin (MSLN); assay: label in the legend box: nominal affinity of the MSLN binding domain (paragraph 422 calls such label values KD); method not stated on the sheet; remark: listed apart in the source
human CD28 [11] = biological target: T4, human CD28; assay: label in the legend box: nominal affinity of the CD28 binding domain (paragraph 422 calls such label values KD); method not stated on the sheet; remark: listed apart in the source
human mesothelin (MSLN) [12] = biological target: T1, human mesothelin (MSLN); assay: KD quoted in the text; Octet (BLI) per FIGS. 20-21

EC50 (read off the curve) [1]: ~0.05 µg/mL
Kd (human mesothelin (MSLN) [2]): ~12.8 nM
B1: XENP32751 (bispecific antibody)
chain 1: QVQLVQSGAEVKKPGASVKVSCKASGYTFTSYWMHWVRQAPGQGLEWMGMIHPNSDNTIYYEKFQGRVTMTVDKSISTAYMELSRLRSDDTAVYYCAIIITPVVPKFDYWGQGTLVTVSSASTKGPSVFPLAPSSKSTSGGTAALGCLVKDYFPEPVTVSWNSGALTSGVHTFPAVLQSSGLYSLSSVVTVPSSSLGTQTYICNVNHKPSDTKVDKKVEPKSCDKTHTCPPCPAPPVAGPSVFLFPPKPKDTLMISRTPEVTCVVVDVKHEDPEVKFNWYVDGVEVHNAKTKPREEEYNSTYRVVSVLTVLHQDWLNGKEYKCKVSNKALPAPIEKTISKAKGQPREPQVYTLPPSREEMTKNQVSLTCDVSGFYPSDIAVEWESDGQPENNYKTTPPVLDSDGSFFLYSKLTVDKSRWEQGDVFSCSVMHEALHNHYTQKSLSLSPGK
chain 2: QVQLVQSGAEVKKPGASVKVSCKASGYTFTSYWMHWVRQAPGQGLEWMGMIHPNSDNTIYYEKFQGRVTMTVDKSISTAYMELSRLRSDDTAVYYCAIIITPVVPKFDYWGQGTLVTVSSASTKGPSVFPLAPSSKSTSGGTAALGCLVKDYFPEPVTVSWNSGALTSGVHTFPAVLQSSGLYSLSSVVTVPSSSLGTQTYICNVNHKPSNTKVDKKVEPKSCGGGGSGGGGSQAVVTQEPSLTVSPGGTVTLTCGSSTGAVTTSNYANWVQQKPGKSPRGLIGGTNKRAPGVPARFSGSLLGGKAALTISGAQPEDEADYYCALWYSNHWVFGGGTKLTVLGKPGSGKPGSGKPGSGKPGSEVQLVESGGGLVQPGGSLRLSCAASGFTFSTYAMNWVRQAPGKGLEWVGRIRSKANNYATYYADSVKGRFTISRDDSKNTLYLQMNSLRAEDTAVYYCVRHGNFGDSYVSWFAYWGQGTLVTVSSGGGGSGGGGSKTHTCPPCPAPPVAGPSVFLFPPKPKDTLMISRTPEVTCVVVDVKHEDPEVKFNWYVDGVEVHNAKTKPREEQYNSTYRVVSVLTVLHQDWLNGKEYKCKVSNKALPAPIEKTISKAKGQPREPQVYTLPPSREQMTKNQVKLTCLVKGFYPSDIAVEWESNGQPENNYKTTPPVLDSDGSFFLYSKLTVDKSRWQQGNVFSCSVMHEALHNHYTQKSLSLSPGK
chain 3: DIVMTQSPDSLAVSLGERATINCKASHDVGTYVAWYQQKPGQSPKLLIYWASTRHTGVPDRFTGSGSGTDFTLTISSLQAEDVAVYFCQQYSSYPLTFGAGTKLEIKRTVAAPSVFIFPPSDEQLKSGTASVVCLLNNFYPREAKVQWKVDNALQSGNSQESVTEQDSKDSTYSLSSTLTLSKADYEKHKVYACEVTHQGLSSPVTKSFNRGEC

Kd (human mesothelin (MSLN) [7]): 0.3 nM
Kd (human CD28 [8]): 60 nM
Kd (human CD28 [9]): 37 nM
B5: XENP39553 (bispecific antibody)
heavy: B1 chain 1 with M430L, N436S
scFv-Fc: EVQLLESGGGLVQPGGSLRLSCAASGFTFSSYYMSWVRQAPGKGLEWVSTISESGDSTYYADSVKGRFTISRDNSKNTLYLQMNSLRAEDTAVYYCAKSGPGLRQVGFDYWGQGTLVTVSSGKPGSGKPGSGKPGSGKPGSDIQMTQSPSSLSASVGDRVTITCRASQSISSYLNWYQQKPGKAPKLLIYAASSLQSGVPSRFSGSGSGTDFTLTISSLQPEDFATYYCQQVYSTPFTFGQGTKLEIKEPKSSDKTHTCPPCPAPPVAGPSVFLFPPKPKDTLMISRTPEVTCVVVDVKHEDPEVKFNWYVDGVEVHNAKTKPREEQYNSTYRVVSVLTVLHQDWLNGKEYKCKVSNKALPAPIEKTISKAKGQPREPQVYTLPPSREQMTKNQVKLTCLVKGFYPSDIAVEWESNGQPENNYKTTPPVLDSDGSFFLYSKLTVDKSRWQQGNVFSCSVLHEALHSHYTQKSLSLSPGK
light: B1 chain 3 with Y32S
notes: also called MSLN (0.3 nM) x CD28 (37 nM) 1+1 Fab-scFv-Fc

More lines, now with the values behind:

B2: XENP32947 (bispecific antibody)
chain 1: B1 chain 1 with M50W
chain 2: B1 chain 2 with M50W
chain 3: B1 chain 3 with Y32S
Kd (CD3): 30 nM
Kd (human mesothelin (MSLN) [2]): 9.2 nM

B3: XENP39566 (bispecific antibody)
heavy: B1 chain 1 with M50W, M430L, N436S
scFv-Fc: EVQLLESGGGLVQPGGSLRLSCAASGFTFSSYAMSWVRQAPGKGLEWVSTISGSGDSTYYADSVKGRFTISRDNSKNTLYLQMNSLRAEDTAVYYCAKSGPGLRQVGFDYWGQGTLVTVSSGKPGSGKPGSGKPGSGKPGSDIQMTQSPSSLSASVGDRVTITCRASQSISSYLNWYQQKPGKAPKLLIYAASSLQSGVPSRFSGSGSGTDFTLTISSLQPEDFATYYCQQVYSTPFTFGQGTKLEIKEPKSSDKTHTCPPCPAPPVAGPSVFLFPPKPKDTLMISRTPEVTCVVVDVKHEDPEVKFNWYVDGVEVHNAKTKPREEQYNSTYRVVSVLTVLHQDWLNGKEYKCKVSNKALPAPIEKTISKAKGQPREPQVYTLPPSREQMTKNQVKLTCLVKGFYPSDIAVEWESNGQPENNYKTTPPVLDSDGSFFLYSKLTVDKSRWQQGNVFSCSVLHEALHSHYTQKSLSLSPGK
light: B1 chain 3 with Y32S
notes: also called XENP39566 MSLN (9 nM) x CD28 (180 nM) 1+1 Fab-scFv-Fc
EC50 (read off the curve) [3]: ~4 µg/mL
EC50 (read off the curve) [4]: ~4 µg/mL
Kd (human mesothelin (MSLN) [5]): 9 nM
Kd (human CD28 [6]): 180 nM

B4: XENP39554 (bispecific antibody)
heavy: B1 chain 1 with M430L, N436S
scFv-Fc: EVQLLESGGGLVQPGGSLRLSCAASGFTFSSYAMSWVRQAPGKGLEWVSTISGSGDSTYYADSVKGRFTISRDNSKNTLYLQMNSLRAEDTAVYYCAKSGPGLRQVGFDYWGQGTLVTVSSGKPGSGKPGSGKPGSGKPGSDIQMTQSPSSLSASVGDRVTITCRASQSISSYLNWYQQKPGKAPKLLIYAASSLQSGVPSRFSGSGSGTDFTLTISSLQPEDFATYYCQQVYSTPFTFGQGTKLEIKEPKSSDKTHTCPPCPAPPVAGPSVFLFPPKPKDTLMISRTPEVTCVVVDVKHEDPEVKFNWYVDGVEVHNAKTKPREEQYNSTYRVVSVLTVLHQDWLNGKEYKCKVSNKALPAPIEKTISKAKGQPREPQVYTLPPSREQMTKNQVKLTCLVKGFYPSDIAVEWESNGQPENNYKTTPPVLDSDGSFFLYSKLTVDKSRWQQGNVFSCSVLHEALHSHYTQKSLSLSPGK
light: B1 chain 3 with Y32S
notes: also called XENP39554 MSLN (0.3 nM) x CD28 (180 nM) 1+1 Fab-scFv-Fc
EC50 (read off the curve) [3]: ~0.01 µg/mL
EC50 (read off the curve) [4]: ~0.01 µg/mL
Kd (human mesothelin (MSLN) [5]): 0.3 nM
Kd (human CD28 [6]): 180 nM

B6: XENP39569 (bispecific antibody)
heavy: B1 chain 1 with M50W, M430L, N436S
scFv-Fc: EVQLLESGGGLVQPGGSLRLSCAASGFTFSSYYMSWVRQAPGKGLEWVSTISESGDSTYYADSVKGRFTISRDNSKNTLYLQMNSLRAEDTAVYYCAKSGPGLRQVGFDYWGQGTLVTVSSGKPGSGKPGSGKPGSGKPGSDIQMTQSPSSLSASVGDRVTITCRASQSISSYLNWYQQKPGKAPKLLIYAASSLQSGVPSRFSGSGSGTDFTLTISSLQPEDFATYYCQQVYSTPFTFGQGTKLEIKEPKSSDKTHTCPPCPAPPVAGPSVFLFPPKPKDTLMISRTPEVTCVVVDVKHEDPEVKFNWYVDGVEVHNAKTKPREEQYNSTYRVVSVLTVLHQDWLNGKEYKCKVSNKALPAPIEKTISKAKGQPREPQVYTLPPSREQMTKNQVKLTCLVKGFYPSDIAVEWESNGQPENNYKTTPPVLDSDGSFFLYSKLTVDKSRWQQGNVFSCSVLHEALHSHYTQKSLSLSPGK
light: B1 chain 3 with T31Q, Y32S
notes: also called XENP39569 MSLN (90 nM) x CD28 (37 nM) 1+1
Kd (human mesothelin (MSLN) [10]): 90 nM
Kd (human CD28 [11]): 37 nM

B7: MESO-C H1_L1 (Fab, V domains shown)
VH: QVQLVQSGAEVKKPGASVKVSCKASGYTFTSYWMHWVRQAPGQGLEWMGMIHPNSDNTIYYEKFQGRVTMTVDKSISTAYMELSRLRSDDTAVYYCAIIITPVVPKFDYWGQGTLVTVSS
VL: DIVMTQSPDSLAVSLGERATINCKASHDVGTSVAWYQQKPGQSPKLLIYWASTRHTGVPDRFTGSGSGTDFTLTISSLQAEDVAVYFCQQYSSYPLTFGAGTKLEIK
Kd (human mesothelin (MSLN) [12]): 0.3 nM
